From article PMC11702068, “NEK8 promotes the progression of gastric cancer by reprogramming asparagine metabolism” (Molecular Medicine, 2025)

B1: Flag-ASNS (wild type) [not stated] / NEK8 (partner in the co-immunoprecipitation with ASNS-WT and ASNS-S349A) [not stated] (parent)
chain 1: MCGIWALFGSDDCLSVQCLSAMKIAHRGPDAFRFENVNGYTNCCFGFHRLAVVDPLFGMQPIRVKKYPYLWLCYNGEIYNHKKMQQHFEFEYQTKVDGEIILHLYDKGGIEQTICMLDGVFAFVLLDTANKKVFLGRDTYGVRPLFKAMTEDGFLAVCSEAKGLVTLKHSATPFLKVEPFLPGHYEVLDLKPNGKVASVEMVKYHHCRDVPLHALYDNVEKLFPGFEIETVKNNLRILFNNAVKKRLMTDRRIGCLLSGGLDSSLVAATLLKQLKEAQVQYPLQTFAIGMEDSPDLLAARKVADHIGSEHYEVLFNSEEGIQALDEVIFSLETYDITTVRASVGMYLISKYIRKNTDSVVIFSGEGSDELTQGYIYFHKAPSPEKAEEESERLLRELYLFDVLRADRTTAAHGLELRVPFLDHRFSSYYLSLPPEMRIPKNGIEKHLLRETFEDSNLIPKEILWRPKEAFSDGITSVKNSWFKILQEYVEHQVDDAMMANAAQKFPFNTPKTKEGYYYRQVFERHYPGRADWLSHYWMPKWINATDPSARTLTHYKSAVKA
chain 2: MEKYERIRVVGRGAFGIVHLCLRKADQKLVIIKQIPVEQMTKEERQAAQNECQVLKLLNHPNVIEYYENFLEDKALMIAMEYAPGGTLAEFIQKRCNSLLEEETILHFFVQILLALHHVHTHLILHRDLKTQNILLDKHRMVVKIGDFGISKILSSKSKAYTVVGTPCYISPELCEGKPYNQKSDIWALGCVLYELASLKRAFEAANLPALVLKIMSGTFAPISDRYSPELRQLVLSLLSLEPAQRPPLSHIMAQPLCIRALLNLHTDVGSVRMRRAEKSVAPSNTGSRTTSVRCRGIPRGPVRPAIPPPLSSVYAWGGGLGTPLRLPMLNTEVVQVAAGRTQKAGVTRSGRLILWEAPPLGAGGGSLLPGAVEQPQPQFISRFLEGQSGVTIKHVACGDFFTACLTDRGIIMTFGSGSNGCLGHGSLTDISQPTIVEALLGYEMVQVACGASHVLALSTERELFAWGRGDSGRLGLGTRESHSCPQQVPMPPGQEAQRVVCGIDSSMILTVPGQALACGSNRFNKLGLDHLSLGEEPVPHQQVEEALSFTLLGSAPLDQEPLLSIDLGTAHSAAVTASGDCYTFGSNQHGQLGTNTRRGSRAPCKVQGLEGIKMAMVACGDAFTVAIGAESEVYSWGKGARGRLGRRDEDAGLPRPVQLDETHPYTVTSVSCCHGNTLLAVRSVTDEPVPP

Variants of: B1
Experiment: co-immunoprecipitation (IP: ASNS, IB: NEK8), band intensity quantified
Conditions: parent: 4.9, read off a plot

Variant | response
chain 1 MCGIWALFGSDDCLSVQCLSAMKIAHRGPDAFRFENVNGYTNCCFGFHRLAVVDPLFGMQPIRVKKYPYLWLCYNGEIYNHKKMQQHFEFEYQTKVDGEIILHLYDKGGIEQTICMLDGVFAFVLLDTANKKVFLGRDTYGVRPLFKAMTEDGFLAVCSEAKGLVTLKHSATPFLKVEPFLPGHYEVLDLKPNGKVASVEMVKYHHCRDVPLHALYDNVEKLFPGFEIETVKNNLRILFNNAVKKRLMTDRRIGCLLSGGLDSSLVAATLLKQLKEAQVQYPLQTFAIGMEDSPDLLAARKVADHIGSEHYEVLFNSEEGIQALDEVIFSLETYDITTVRASVGMYLIAKYIRKNTDSVVIFSGEGSDELTQGYIYFHKAPSPEKAEEESERLLRELYLFDVLRADRTTAAHGLELRVPFLDHRFSSYYLSLPPEMRIPKNGIEKHLLRETFEDSNLIPKEILWRPKEAFSDGITSVKNSWFKILQEYVEHQVDDAMMANAAQKFPFNTPKTKEGYYYRQVFERHYPGRADWLSHYWMPKWINATDPSARTLTHYKSAVKA [chain 1 S349A] | 3.1

Variants of: B1
Experiment: co-immunoprecipitation (IP: Flag-ASNS, IB: NEK8), band intensity quantified
Conditions: parent: 5.4, read off a plot

Variant | response
chain 1 MCGIWALFGSDDCLSVQCLSAMKIAHRGPDAFRFENVNGYTNCCFGFHRLAVVDPLFGMQPIRVKKYPYLWLCYNGEIYNHKKMQQHFEFEYQTKVDGEIILHLYDKGGIEQTICMLDGVFAFVLLDTANKKVFLGRDTYGVRPLFKAMTEDGFLAVCSEAKGLVTLKHSATPFLKVEPFLPGHYEVLDLKPNGKVASVEMVKYHHCRDVPLHALYDNVEKLFPGFEIETVKNNLRILFNNAVKKRLMTDRRIGCLLSGGLDSSLVAATLLKQLKEAQVQYPLQTFAIGMEDSPDLLAARKVADHIGSEHYEVLFNSEEGIQALDEVIFSLETYDITTVRASVGMYLIAKYIRKNTDSVVIFSGEGSDELTQGYIYFHKAPSPEKAEEESERLLRELYLFDVLRADRTTAAHGLELRVPFLDHRFSSYYLSLPPEMRIPKNGIEKHLLRETFEDSNLIPKEILWRPKEAFSDGITSVKNSWFKILQEYVEHQVDDAMMANAAQKFPFNTPKTKEGYYYRQVFERHYPGRADWLSHYWMPKWINATDPSARTLTHYKSAVKA [chain 1 S349A] | 2.7
